From publication PMC3089569 (The Journal of Biological Chemistry, 2011)

Molecular target: N-terminal histidine-tagged full-length mouse eIF4AI (mouse, UniProt P60843 1-406)
Experiment: SPR

N-terminal histidine-tagged full-length mouse eIF4AI, sequence (P60843 whole entry): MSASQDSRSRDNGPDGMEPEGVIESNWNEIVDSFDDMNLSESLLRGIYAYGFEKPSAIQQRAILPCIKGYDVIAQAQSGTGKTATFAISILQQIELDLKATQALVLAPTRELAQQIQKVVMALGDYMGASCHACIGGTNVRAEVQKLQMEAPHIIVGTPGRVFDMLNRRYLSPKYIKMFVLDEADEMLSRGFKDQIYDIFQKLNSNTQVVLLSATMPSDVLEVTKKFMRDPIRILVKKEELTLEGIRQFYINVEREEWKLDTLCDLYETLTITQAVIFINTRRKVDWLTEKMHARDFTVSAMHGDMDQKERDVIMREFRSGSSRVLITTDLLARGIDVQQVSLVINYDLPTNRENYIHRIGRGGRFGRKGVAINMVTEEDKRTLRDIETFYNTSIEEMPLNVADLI

B1: GST-MA-3M-C fusion protein (tandem MA-3 region of mouse Pdcd4, residues 157-449) (domain or fragment, UniProt Q61823 157-449, looked up)
chain: LPLDETAFEKTLTPIIQEYFEHGDTNEVAEMLRDLNLGEMKSGVPVLAVSLALEGKASHREMTSKLLSDLCGTVMSTNDVEKSFDKLLKDLPELALDTPRAPQLVGQFIARAVGDGILCNTYIDSYKGTVDCVQARAALDKATVLLSMSKGGKRKDSVWGSGGGQQPVNHLVKEIDMLLKEYLLSGDISEAEHCLKELEVPHFHHELVYEAIVMVLESTGESAFKMILDLLKSLWKSSTITIDQMKRGYERIYNEIPDINLDVPHSYSVLERFVEECFQAGIISKQLRDLCPS
Kd: 167 nM
